Publication PMC7326950, “Hypoxanthine-Guanine Phosphoribosyltransferase/adenylate Kinase From Zobellia galactanivorans: A Bifunctional Catalyst for the Synthesis of Nucleoside-5′-Mono-, Di- and Triphosphates” (Frontiers in Bioengineering and Biotechnology, 2020)

What was measured:
ZgHGPRT/AMPK = target: T1, ZgHGPRT/AMPK (Zobellia galactanivorans, UniProt G0LC40); experiment: steady-state kinetics, HPLC of IMP formation, non-linear regression; type: biochemical; settings: HGPRT domain; apparent substrate inhibition at high Hyp; PRPP fixed at 5 mM; varied Hyp 0.5–17.2 mM; Mg2+
T1 construct: gene adkA; homodimer
Source text: (§1) steady-state kinetics, HPLC of IMP formation, non-linear regression on ZgHGPRT/AMPK

purified protein = substrate: Nc1ncnc2c1ncn2[C@@H]1O[C@H](COP(=O)(O)O)[C@@H](O)[C@H]1O; experiment: purified protein; settings: AMPK domain; apparent; ATP fixed at 3.2 mM; varied AMP 0.5–10 mM; Mg2+
[1] = substrate: Nc1ncnc2c1ncn2[C@@H]1O[C@H](COP(=O)(O)OP(=O)(O)OP(=O)(O)O)[C@@H](O)[C@H]1O; experiment: steady-state kinetics, HPLC of ADP formation, non-linear regression; type: biochemical, Zobellia galactanivorans; settings: AMPK domain; apparent; AMP fixed at 3.2 mM; varied ATP 0.5–10 mM; Mg2+
Source text: steady-state kinetics, HPLC of ADP formation, non-linear regression on ZgHGPRT/AMPK

[2] = substrate: O=P(O)(O)OC[C@H]1O[C@H](OP(=O)(O)OP(=O)(O)O)[C@H](O)[C@@H]1O; experiment: steady-state kinetics, HPLC of IMP formation, non-linear regression; type: biochemical, Zobellia galactanivorans; settings: HGPRT domain; apparent; Hyp fixed at 5 mM; varied PRPP 0.5–17.2 mM; Mg2+
Source text: as §1

[3] = substrate: O=c1[nH]cnc2nc[nH]c12; experiment: as above; type: biochemical, Zobellia galactanivorans; settings: HGPRT domain; apparent; PRPP fixed at 5 mM; varied Hyp 0.5–17.2 mM; Mg2+
Source text: as §1

[4] = target: the molecule itself; experiment: AUC; sedimentation velocity, 20 mM Tris-HCl pH 8, 20°C, 50,000 x g, profiles at 292 nm, c(s) by SEDFIT; protein 0.4 mg/ml

O=c1[nH]cnc2nc[nH]c12 [compound 1, hypoxanthine]
Value with variable substrate / Hyp^a (ZgHGPRT/AMPK): 11.12 ± 1.02 mM

B1: hypoxanthine-guanine phosphoribosyltransferase (HGPRT)/adenylate kinase (AMPK) from Zobellia galactanivorans (enzyme, UniProt G0LC40 1-368, looked up)
chain: MIKLHDKHFKPFLSEAQIKAAVKKVAEQVAADYKDETPIFVGVLNGAFMFISDFLKEYQYPCEVSFVKLSSYQGLTSTGIVETLLDVSENIEGRSVIILEDIIDTGRTLKKLVHLFSKANVKEFRVASLFYKSEVYNGEYTIDYVGIDIPDKFIVGYGLDYNELGRNLREVYQLNQKHMINLVLFGKPGAGKGTQAEFLKDKYNLKHISTGDLFRFNMKNDTELGKLAKSYIDRGDLVPDEVTIKMLQDAVEKNPEASGFIFDGFPRTVAQAEALDKFLATKDMKIDATIALEANDEVLIQRLLERGKVSGRSDDQDESKIRNRFDEYNEKTAPLKDFYENQGKFHSVNGIGAIDEITHRLGKVIEEL
notes: gene from GenScript cloned NheI-BamHI into pET28b(+); The vector encodes a thrombin cleavage site between the His6 tag and the enzyme; no cleavage is described, and the measured mass is compared with that of the His6-tagged protein (43.77 kDa); also called ZgHGPRT/AMPK; HGPRT/AMPK; source: E. coli BL21(DE3), purified (HisTrap FF, Superdex 200); not shown: His6, N-terminal, kept
Km (purified protein): 8.02 ± 0.40 mM
kcat (purified protein): 0.16 s⁻¹
kcat/Km (purified protein): 20 M⁻¹ s⁻¹
Km [1]: 0.77 ± 0.04 mM
kcat [1]: 0.07 ± 0.003 s⁻¹
kcat/Km [1]: 100 M⁻¹ s⁻¹
Km [2]: 6.77 ± 0.41 mM
kcat [2]: 2.82 ± 0.21 s⁻¹
kcat/Km [2]: 420 M⁻¹ s⁻¹
Km [3]: 1.01 ± 0.05 mM
kcat [3]: 1.11 ± 0.06 s⁻¹
kcat/Km [3]: 1100 M⁻¹ s⁻¹
stoichiometry N [4]: 2
